In general, EC50 refers to the concentration giving half of the maximal effect. Lower therefore signals an effect from little substance.

The values below come from patent US20240301052A1 (LANOVA MEDICINES DEVELOPMENT, published 2024).

In experiment [1] the target is T1, human SLC34A2 (human, UniProt O95436 1-690).
T1 construct: whole, on cells; also called human solute carrier 34 A2; NaPi2b
T1 sequence (looked up): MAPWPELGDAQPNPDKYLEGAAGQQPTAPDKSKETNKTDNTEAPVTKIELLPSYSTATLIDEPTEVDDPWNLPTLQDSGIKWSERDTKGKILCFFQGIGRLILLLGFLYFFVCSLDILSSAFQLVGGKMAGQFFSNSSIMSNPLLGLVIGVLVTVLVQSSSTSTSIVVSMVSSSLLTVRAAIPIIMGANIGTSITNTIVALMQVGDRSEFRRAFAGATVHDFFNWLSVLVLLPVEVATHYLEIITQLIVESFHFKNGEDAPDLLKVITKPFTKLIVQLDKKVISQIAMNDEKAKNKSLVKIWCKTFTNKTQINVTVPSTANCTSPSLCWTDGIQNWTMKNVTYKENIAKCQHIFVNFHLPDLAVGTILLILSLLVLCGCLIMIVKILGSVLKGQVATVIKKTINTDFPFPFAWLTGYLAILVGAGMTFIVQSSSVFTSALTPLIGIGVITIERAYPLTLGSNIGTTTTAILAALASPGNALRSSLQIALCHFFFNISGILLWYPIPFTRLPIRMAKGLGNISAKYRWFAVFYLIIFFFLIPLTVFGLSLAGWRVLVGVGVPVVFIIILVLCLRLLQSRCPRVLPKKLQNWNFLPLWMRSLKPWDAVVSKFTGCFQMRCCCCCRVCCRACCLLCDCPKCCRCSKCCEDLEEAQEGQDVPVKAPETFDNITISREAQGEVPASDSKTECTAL
Put plainly: FACS, OVCAR3 cells.

In the next experiment the target is T2, rat SLC34A2 (rat, UniProt Q9JJ09 1-695).
T2 construct: whole, on cells
T2 sequence (looked up): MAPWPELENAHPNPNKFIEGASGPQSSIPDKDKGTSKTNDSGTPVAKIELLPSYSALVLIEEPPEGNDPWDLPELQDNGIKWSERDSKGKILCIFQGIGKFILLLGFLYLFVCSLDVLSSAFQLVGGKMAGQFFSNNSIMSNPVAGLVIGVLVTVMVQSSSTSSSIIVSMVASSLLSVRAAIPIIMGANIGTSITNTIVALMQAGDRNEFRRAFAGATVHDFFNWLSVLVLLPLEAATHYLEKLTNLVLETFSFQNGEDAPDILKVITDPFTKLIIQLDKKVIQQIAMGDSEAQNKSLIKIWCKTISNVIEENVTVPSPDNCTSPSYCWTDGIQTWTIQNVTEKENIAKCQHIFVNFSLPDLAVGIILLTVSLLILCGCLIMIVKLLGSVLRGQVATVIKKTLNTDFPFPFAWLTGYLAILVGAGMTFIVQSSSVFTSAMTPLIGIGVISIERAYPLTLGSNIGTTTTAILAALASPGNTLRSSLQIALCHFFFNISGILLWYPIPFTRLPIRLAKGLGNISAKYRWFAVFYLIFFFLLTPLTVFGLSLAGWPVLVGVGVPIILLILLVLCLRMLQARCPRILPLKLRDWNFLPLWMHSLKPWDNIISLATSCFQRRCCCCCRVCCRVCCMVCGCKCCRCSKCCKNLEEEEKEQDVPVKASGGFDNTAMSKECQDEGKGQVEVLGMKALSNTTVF
Put plainly: FACS, HEK293/Rat SLC34A2 cells. For orientation: In flow cytometry, cells or beads pass a laser one at a time.

Another experiment deals with T3, Cynomolgus SLC34A2 (Cynomolgus, UniProt A0A2K5UHY1 1-690).
T3 construct: whole, on cells; also called Cyno SLC34A2
T3 sequence: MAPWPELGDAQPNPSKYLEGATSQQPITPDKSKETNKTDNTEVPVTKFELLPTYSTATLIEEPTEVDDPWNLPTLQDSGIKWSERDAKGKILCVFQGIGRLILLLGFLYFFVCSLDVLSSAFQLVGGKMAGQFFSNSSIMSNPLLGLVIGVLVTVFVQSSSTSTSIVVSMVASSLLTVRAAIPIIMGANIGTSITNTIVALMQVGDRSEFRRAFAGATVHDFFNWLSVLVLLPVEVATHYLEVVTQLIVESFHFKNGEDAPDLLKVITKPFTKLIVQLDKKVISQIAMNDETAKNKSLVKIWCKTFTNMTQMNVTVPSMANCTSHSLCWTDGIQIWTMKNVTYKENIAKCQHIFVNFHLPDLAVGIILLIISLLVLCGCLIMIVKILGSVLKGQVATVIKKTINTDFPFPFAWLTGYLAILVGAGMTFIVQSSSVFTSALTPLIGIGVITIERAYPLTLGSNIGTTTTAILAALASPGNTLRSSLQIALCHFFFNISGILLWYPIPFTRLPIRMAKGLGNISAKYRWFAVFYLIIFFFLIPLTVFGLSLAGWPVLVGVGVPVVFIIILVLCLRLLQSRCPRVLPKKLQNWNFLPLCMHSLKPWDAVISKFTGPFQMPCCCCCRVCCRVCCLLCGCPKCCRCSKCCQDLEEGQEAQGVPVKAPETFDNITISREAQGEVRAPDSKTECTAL
Put plainly: FACS, cells expressing Cynomolgus SLC34A2.

Experiment [2] concerns the target T1, human SLC34A2. Nature of the experiment: FACS, OVCAR3 cells. In a few lines:
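Flow cytometry binding: cells (OVCAR3, or HEK293 transfected with human SLC34A2) exposed 60 min at 4° C to chimeric hIgG1, 8-point 4-fold series starting 200 nM. Washed, stained 30 min at 4° C with fluorescent anti-human secondary, then analysed.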
The source holds these as a separate data set.

Experiment [3] addresses T1, human SLC34A2. Nature of the experiment: cell-based or functional assay.
Experiment [4] deals with T1, human SLC34A2. Put plainly: FACS, HEK293/human SLC34A2 cells. Here is the method: Briefly, OVCAR3 cells or HEK293 cells expressing human SLC34A2 were incubated with chimeric antibodies (from 200 nM, 4 folds dilution, 8 points). After incubation at 4° C. for 60 minutes, the cells were washed with FACS buffer twice, then stained with fluorescent conjugated secondary antibody at 4° C. for 30 minutes. After that the cells were washed twice and analyzed by flow cytometry.

Changes are numbered by the printed parent chain.

B1: 30H9B8F9.p1.z5 hIgG1 (antibody, V domains shown)
VH: QVQLVQSGAEVKKPGASVKVSCKTSGYTFTTNNMHWVRQAPGQGLEWIGAIYPGSGATAYNQKFKGRVTMTADTSTSTVYMELSSLRSEDTAVYYCARGMYGHGAMDYWGQGTLVTVSS
VL: DIQLTQSPSFLSASVGDRVTITCKASQDVGTAVAWYQQKPGKAPKLLIYWATTRHSGVPSRFSGSGSGTEFTLTISSLQPEDFATYYCQQYSSNPLTFGQGTKLEIK
notes: humanized hIgG1
Regarding B1, the EC50 came out at 0.9 nM with human SLC34A2 [1], 1.81 nM in the experiment with rat SLC34A2 and 0.97 nM with Cynomolgus SLC34A2.

B2: xi91C9F1 hIgG1 (antibody, V domains shown)
VH: EVQLQQSGPELVKPGTSVKISCKTSGFFFTEYIIHWVKQSHGRSLEWIGGIIPNNGVTNYKQNFRGKAALTADKSSNTAYMELRSLTSEDSAVYYCARWRNGYYSAMDSWGQGTSVTVSS
VL: DIVVTQSHKFMSTSLGDRVSITCTASQDVGTAVAWYQQKPGHSPKLLIYWASTRHTGVPERFTGSGSGTDFTLTITNVQSEDLADYFCQQYRTSPLTFGVGTKLELK
notes: chimeric, hIgG1
With B2, in the experiment with human SLC34A2 [2], the EC50 amounted to 1.64 nM and the “Top (MFI)” value was found to be 26400 MFI. Further, in the experiment with human SLC34A2 [3], the “ADCC reporter EC50” value was 2.8 nM and the “ADCC reporter Top (MFI)” value was 215000 MFI. Moreover, in the experiment with human SLC34A2 [4], the EC50 was determined as 1.06 nM and the “Top (MFI)” value is 44800 MFI.

B3: 63A11D5B4.p1.z9 hIgG1 (antibody, V domains shown)
VH: QVQLVQSGAEVVKPGASVKMSCKTSGYTFITYNMHWVRQAPGQGLEWIGAIYPGSGDTSYNQKFKGRVTLTADKSTSTAYMELSSLRSEDTAVYYCSISTIITTGAVDYWGQGTLVTVSS
VL: DIQMTQSPSSLSASVGDRVTITCKASQDVGTAVAWYQQKPGKVPKLLIYWTSTRHTGVPSRFSGSGSGTDFTLTISSLQPEDVATYYCQQYSRIPLTFGGGTKVEIK
notes: humanized hIgG1
Regarding B3, the EC50 with human SLC34A2 [1] came out at 9.1 nM; in the experiment with rat SLC34A2 it was 3.04 nM; in the experiment with Cynomolgus SLC34A2, 4.45 nM.

B4: 62G10E4G8.p3.z15 hIgG1 (antibody, V domains shown)
VH: QVQLVQSGAEVVKPGASVKMSCKASGYTFPSYITHWVKQAPGQGLEWIGAIYPGNADTSYIQKFKGRATLTADKSTSTAYMELSSLRSEDTAVYYCARGTYGTSAWFTYWGQGTLVTVSS
VL: EIVLTQSPATLSVSPGERATLSCRARQNIGNNLYWYQQKPGQSPRLLIKYASQSISGIPSRFSGSGSGTDFTLTISSLQSEDFAVYFCQQSFSWPLTFGQGTKLEIK
notes: humanized hIgG1
Take B4: the values for the EC50 in the experiment with human SLC34A2 [1], in the experiment with rat SLC34A2 and with Cynomolgus SLC34A2 were 3.8 nM, 4.04 nM and 1.63 nM, respectively.

B5: xi62G10E4G8 hIgG1 (antibody, V domains shown)
VH: B4 VH with V5Q, A40T, A56G, R67K, T76S, E82Q, R87T, T91S, S120A
VL: DIVLTQSPATLSVTPGDSVSLSCRARQNIGNNLYWYQQKSHESPRLLIKYASQSISGIPSRFSGSGSGTDFTLTINSVETEDFGVYFCQQSFSWPLTFGAGTKLELK
notes: chimeric, hIgG1
As to B5, in the experiment with human SLC34A2 [2], the EC50 was found to be 2.55 nM and the “Top (MFI)” value was found to be 43000 MFI. Moreover, in the experiment with human SLC34A2 [3], the “ADCC reporter EC50” value amounted to 4.8 nM and the “ADCC reporter Top (MFI)” value amounted to 542000 MFI. Moreover, in the experiment with human SLC34A2 [4], the EC50 was 1.28 nM and the “Top (MFI)” value is 101000 MFI.

B6: 91C9F1.p1.z7 hIgG1 (antibody, V domains shown)
VH: QVQLVQSGAEVKKPGSSVKVSCKTSGFFFTEYIIHWVRQAPGQGLEWIGGIIPNNDVTNYKQNFRGRVTLTADKSTSTAYMELSSLRSEDTAVYYCARWRNAYYSAMDSWGQGTTVTVSS
VL: DIQVTQSPSSLSTSVGDRVTITCTASQDVGTAVAWYQQKPGKSPKLLIYWASTRHTGVPERFTGSGSGTDFTLTISSVQPEDVATYFCQQYRTSPLTFGVGTKVEIK
notes: humanized hIgG1
As for B6, the EC50 in the experiment with human SLC34A2 [1] is 2.4 nM; in the experiment with rat SLC34A2, 2.62 nM; with Cynomolgus SLC34A2 it was 45.7 nM.

B7: xi30H9B8F9 hIgG1 (antibody, V domains shown)
VH: QVQLQQPGAELVKPGASVKMSCKTSGYTFTTNNMHWVKQTPGQGLEWIGAIYPGNGATAYNQKFKGKATLTADKSSSTAYMQLSSLTSEASAVYYCARGMYGHGAMDYWGQGTSVIVSS
VL: DIVMTQSHKFMSRSVGDRVRITCKASQDVGTAVAWYQQKPGQSPKLLIYWATTRHSGVPDRFTGSGSGTDFIFTISNVQSEDLADYFCQQYSSNPLTFGAGTKLELK
notes: chimeric, hIgG1
Turning to B7, in the experiment with human SLC34A2 [2], the midpoint of the response, the EC50, lay at 0.53 nM and the “Top (MFI)” value was 41900 MFI. Further, in the experiment with human SLC34A2 [3], the “ADCC reporter EC50” value came out at 3.1 nM and the “ADCC reporter Top (MFI)” value was 487000 MFI. Further, in the experiment with human SLC34A2 [4], the EC50 came to 0.96 nM and the “Top (MFI)” value is 107000 MFI.

B8: xi63A11D5B4 hIgG1 (antibody, V domains shown)
VH: QVQLQQPGAELVKPGASVKMSCRTSGYTFITYNMHWVKQTPGQGREWIGAIYPGNGDTSYNQKFKGKATLTADKSSSTAYMQLNSLTSEDSAVYYCSISTIITTGAVDYWGQGTSVTVAS
VL: DIVMTQSHKFMSTSVGDRVSITCKASQDVGTAVAWYQQKAGQSPKLLIYWTSTRHTGVPDRFTGSGSGTDFTLIIRSLQSEDLADYFCQQYSRIPLTFGSGTKLEIK
notes: chimeric, hIgG1
With B8, in the experiment with human SLC34A2 [2], the EC50 came out at 3.85 nM and the “Top (MFI)” value stood at 43000 MFI. Further, in the experiment with human SLC34A2 [3], the “ADCC reporter EC50” value came to 4.6 nM and the “ADCC reporter Top (MFI)” value was found to be 216000 MFI. Further, in the experiment with human SLC34A2 [4], a half-maximal response (EC50) required 1.5 nM and the “Top (MFI)” value turned out to be 103000 MFI.
